Usually pIC50 stands for the IC50 on a negative log10 scale, so that one unit is a factor of ten. The pKd is the negative decadic logarithm of the Kd, by convention in mol/L. Read a low pKd as a high Kd.

For experiment [1], the target named is microtubules of pig brain tubulin, taxol-stabilised, surface-immobilised (pig) (UniProt P02550).
For experiment [2] the target is unchanged. Nature of the experiment: TIRF fluorescence imaging of labelled MAP on surface-immobilised MTs.

pIC50, pKd: −log10 of the molar value.

Chain of full-length human MAP7 (Q14244 whole entry): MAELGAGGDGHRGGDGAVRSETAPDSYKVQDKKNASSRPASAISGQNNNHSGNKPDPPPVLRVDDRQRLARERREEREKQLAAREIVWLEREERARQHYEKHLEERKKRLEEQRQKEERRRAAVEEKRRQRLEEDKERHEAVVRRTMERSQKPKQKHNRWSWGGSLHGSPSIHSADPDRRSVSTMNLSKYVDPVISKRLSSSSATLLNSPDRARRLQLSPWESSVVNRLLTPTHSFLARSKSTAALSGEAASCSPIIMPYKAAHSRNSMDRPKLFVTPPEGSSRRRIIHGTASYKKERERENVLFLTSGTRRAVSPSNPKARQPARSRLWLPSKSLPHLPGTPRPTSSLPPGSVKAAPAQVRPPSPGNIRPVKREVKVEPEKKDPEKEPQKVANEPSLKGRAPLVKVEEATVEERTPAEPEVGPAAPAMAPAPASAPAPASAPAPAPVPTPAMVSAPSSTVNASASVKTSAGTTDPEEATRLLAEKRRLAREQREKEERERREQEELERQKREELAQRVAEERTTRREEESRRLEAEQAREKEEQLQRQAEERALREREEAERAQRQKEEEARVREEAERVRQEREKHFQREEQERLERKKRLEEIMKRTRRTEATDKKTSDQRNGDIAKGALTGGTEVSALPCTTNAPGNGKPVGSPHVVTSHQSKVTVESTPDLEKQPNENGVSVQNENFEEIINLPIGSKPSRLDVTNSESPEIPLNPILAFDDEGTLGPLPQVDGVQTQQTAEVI
Chain of Tau-MTBD (amino acids 242-367) (P10636 559-684): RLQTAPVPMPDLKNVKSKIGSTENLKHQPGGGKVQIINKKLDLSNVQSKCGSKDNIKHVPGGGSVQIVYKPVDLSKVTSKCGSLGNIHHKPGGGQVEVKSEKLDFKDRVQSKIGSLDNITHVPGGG
Chain of MAP7-N (amino acids 1-316) (Q14244 1-316): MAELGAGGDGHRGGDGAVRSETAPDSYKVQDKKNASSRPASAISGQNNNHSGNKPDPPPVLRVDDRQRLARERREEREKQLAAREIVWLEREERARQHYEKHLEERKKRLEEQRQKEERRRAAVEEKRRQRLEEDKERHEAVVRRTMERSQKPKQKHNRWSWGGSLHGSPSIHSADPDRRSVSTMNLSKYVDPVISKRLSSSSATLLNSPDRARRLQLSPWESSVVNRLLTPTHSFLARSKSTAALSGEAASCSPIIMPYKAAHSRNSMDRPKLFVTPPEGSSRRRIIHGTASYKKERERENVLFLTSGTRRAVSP

In experiment [1], “MAP7-N (amino acids 1-316) (from UniProt Q14244-1 1-316) (domain or fragment)” registered an IC50 of the run frequency of K560 on MTs against the concentration of MAP7-N of 17.6 nM.
In turn, “Tau-MTBD (amino acids 242-367) (from UniProt P10636-8 242-367) (domain or fragment)” yielded a fold lower affinity than FL tau in experiment [2] of 100 fold.
In experiment [2], “full-length human MAP7 (from UniProt Q14244-1 1-749) (natural protein)” showed a negative-log IC50 (pIC50) of 6.57 and a negative-log Kd (pKd) of 6.95.

The values above are taken from paper doi:10.1101/2020.10.22.351346.
